Data on 4 molecules can be found in patent US20250388669A1 (published 2025).

First the molecules themselves.
T1: B7H3 (human, UniProt Q5ZPR3 29-466, limits assumed)
T1 sequence (looked up): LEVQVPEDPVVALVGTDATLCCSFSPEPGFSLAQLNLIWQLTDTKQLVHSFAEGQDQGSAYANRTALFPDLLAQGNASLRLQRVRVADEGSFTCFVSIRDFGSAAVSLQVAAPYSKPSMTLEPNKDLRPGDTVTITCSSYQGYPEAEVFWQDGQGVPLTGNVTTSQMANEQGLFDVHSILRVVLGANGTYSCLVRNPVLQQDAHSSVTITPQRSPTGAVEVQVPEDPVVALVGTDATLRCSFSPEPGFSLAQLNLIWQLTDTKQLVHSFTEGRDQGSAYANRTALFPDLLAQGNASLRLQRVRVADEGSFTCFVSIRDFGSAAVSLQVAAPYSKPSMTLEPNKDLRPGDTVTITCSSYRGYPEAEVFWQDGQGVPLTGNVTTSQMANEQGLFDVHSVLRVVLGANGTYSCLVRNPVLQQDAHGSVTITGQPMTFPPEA

B1: Ly2364 (other)
chain 1: QVQLVQSGAEVKKPGASVKVSCKASGYTFTSYVMHWVRQKPGQGLEWIGYINPYNEGTESTDKFKGRATMTSDKSTSTVYMELSSLRSEDTAVYYCASIYYGYEGTYFGVWGQGTLVTVSSASTKGPSVFPLAPSSKSTSGGTAALGCLVKDYFPEPVTVSWNSGALTSGVHTFPAVLQSSGLYSLSSVVTVPSSSLGTQTYICNVNHKPSNTKVDKKVEPKSCGGGGSGGGGSGGGGSGGGGSGGGGSEVQLVESGGGLVQPGGSLRLSCAASGFTFSTYAMNWVRQAPGKGLEWVGRIRSKYNNYATYYADSVKGRFTISRDDSKNSLYLQMNSLKTEDTAVYYCVRHGNFGNSYVSWFAYWGQGTLVTVSSGGGGSDKTHTCPPCPAPEAAGPSVFLFPPKPKDTLMISRTPEVTCVVVDVSHEDPEVKFNWYVDGVEVHNAKTKPREEQYNSTYRVVSVLTVLHQDWLNGKEYKCKVSNKALPAPIEKTISKAKGQPREPQVYTLPPSREEMTKNQVSLWCLVKGFYPSDIAVEWESNGQPENNYKTTPPVLDSDGSFFLYSKLTVDKSRWQQGNVFSCSVMHEALHNHYTQKSLSLSPGGGGGSGGGGSGGGGSGGGGSQVQLVQSGAEVKKPGASVKVSCKASGYTFAGFEMHWVRQAPGQGLEWMGAIDPKTGGTDYNQKFKDRVTMTRDTSISTAYMELSRLRSDDTAVYYCARDLGYFDVWGQGTLVTVSS
chain 2: QVQLVQSGAEVKKPGASVKVSCKASGYTFTSYVMHWVRQKPGQGLEWIGYINPYNEGTESTDKFKGRATMTSDKSTSTVYMELSSLRSEDTAVYYCASIYYGYEGTYFGVWGQGTLVTVSSASTKGPSVFPLAPSSKSTSGGTAALGCLVKDYFPEPVTVSWNSGALTSGVHTFPAVLQSSGLYSLSSVVTVPSSSLGTQTYICNVNHKPSNTKVDKKVEPKSCGGGGSGGGGSGGGGSGGGGSGGGGSQAVVTQEPSLTVSPGGTVTLTCRSSTGAVTTSNYANWVQQKPGQAPRGLIGGTNKRAPWTPARFSGSLLGGKAALTITGAQAEDEADYYCALWYSNLWVFGGGTKLTVLGGGGSDKTHTCPPCPAPEAAGPSVFLFPPKPKDTLMISRTPEVTCVVVDVSHEDPEVKFNWYVDGVEVHNAKTKPREEQYNSTYRVVSVLTVLHQDWLNGKEYKCKVSNKALPAPIEKTISKAKGQPREPQVYTLPPSREEMTKNQVSLSCAVKGFYPSDIAVEWESNGQPENNYKTTPPVLDSDGSFFLVSKLTVDKSRWQQGNVFSCSVMHEALHNRFTQKSLSLSPGGGGGSGGGGSGGGGSGGGGSDIQMTQSPSSLSASVGDRVTITCRASQDIRSNLNWYQQKPGGAVKLLIYYTSRLHSGVPSRFSGSGSGTDYTLTISSLQPEDFATYFCQQSEKLPRTFGGGTKVEIR
light: EIVLTQSPATLSLSPGERATLSCRASSSVSYMHWYQQKPGQAPRPWIYATSNLASGIPARFSGSRSGTDYTLTISSLEPEDFAVYYCQQWSSNTLTFGGGTKVEIKRTVAAPSVFIFPPSDEQLKSGTASVVCLLNNFYPREAKVQWKVDNALQSGNSQESVTEQDSKDSTYSLSSTLTLSKADYEKHKVYACEVTHQGLSSPVTKSFNRGEC
notes: Tri-specific antibody: B7H3 Fabs, central CD3 Fv, terminal CD137 Fv; Flexible linker is (G4S)5
B2: Ly2365 (other)
chain 1: QVQLVQSGAEVKKPGASVKVSCKASGYTFTSYVMHWVRQKPGQGLEWIGYINPYNEGTESTDKFKGRATMTSDKSTSTVYMELSSLRSEDTAVYYCASIYYGYEGTYFGVWGQGTLVTVSSASTKGPSVFPLAPSSKSTSGGTAALGCLVKDYFPEPVTVSWNSGALTSGVHTFPAVLQSSGLYSLSSVVTVPSSSLGTQTYICNVNHKPSNTKVDKKVEPKSCGGGGSGGGGSGGGGSEVQLVESGGGLVQPGGSLRLSCAASGFTFSTYAMNWVRQAPGKGLEWVGRIRSKYNNYATYYADSVKGRFTISRDDSKNSLYLQMNSLKTEDTAVYYCVRHGNFGNSYVSWFAYWGQGTLVTVSSGGGGSDKTHTCPPCPAPEAAGPSVFLFPPKPKDTLMISRTPEVTCVVVDVSHEDPEVKFNWYVDGVEVHNAKTKPREEQYNSTYRVVSVLTVLHQDWLNGKEYKCKVSNKALPAPIEKTISKAKGQPREPQVYTLPPSREEMTKNQVSLWCLVKGFYPSDIAVEWESNGQPENNYKTTPPVLDSDGSFFLYSKLTVDKSRWQQGNVFSCSVMHEALHNHYTQKSLSLSPGGGGGSGGGGSGGGGSGGGGSQVQLVQSGAEVKKPGASVKVSCKASGYTFAGFEMHWVRQAPGQGLEWMGAIDPKTGGTDYNQKFKDRVTMTRDTSISTAYMELSRLRSDDTAVYYCARDLGYFDVWGQGTLVTVSS
chain 2: QVQLVQSGAEVKKPGASVKVSCKASGYTFTSYVMHWVRQKPGQGLEWIGYINPYNEGTESTDKFKGRATMTSDKSTSTVYMELSSLRSEDTAVYYCASIYYGYEGTYFGVWGQGTLVTVSSASTKGPSVFPLAPSSKSTSGGTAALGCLVKDYFPEPVTVSWNSGALTSGVHTFPAVLQSSGLYSLSSVVTVPSSSLGTQTYICNVNHKPSNTKVDKKVEPKSCGGGGSGGGGSGGGGSQAVVTQEPSLTVSPGGTVTLTCRSSTGAVTTSNYANWVQQKPGQAPRGLIGGTNKRAPWTPARFSGSLLGGKAALTITGAQAEDEADYYCALWYSNLWVFGGGTKLTVLGGGGSDKTHTCPPCPAPEAAGPSVFLFPPKPKDTLMISRTPEVTCVVVDVSHEDPEVKFNWYVDGVEVHNAKTKPREEQYNSTYRVVSVLTVLHQDWLNGKEYKCKVSNKALPAPIEKTISKAKGQPREPQVYTLPPSREEMTKNQVSLSCAVKGFYPSDIAVEWESNGQPENNYKTTPPVLDSDGSFFLVSKLTVDKSRWQQGNVFSCSVMHEALHNRFTQKSLSLSPGGGGGSGGGGSGGGGSGGGGSDIQMTQSPSSLSASVGDRVTITCRASQDIRSNLNWYQQKPGGAVKLLIYYTSRLHSGVPSRFSGSGSGTDYTLTISSLQPEDFATYFCQQSEKLPRTFGGGTKVEIR
light: EIVLTQSPATLSLSPGERATLSCRASSSVSYMHWYQQKPGQAPRPWIYATSNLASGIPARFSGSRSGTDYTLTISSLEPEDFAVYYCQQWSSNTLTFGGGTKVEIKRTVAAPSVFIFPPSDEQLKSGTASVVCLLNNFYPREAKVQWKVDNALQSGNSQESVTEQDSKDSTYSLSSTLTLSKADYEKHKVYACEVTHQGLSSPVTKSFNRGEC
notes: Tri-specific antibody: B7H3 Fabs, central CD3 Fv, terminal CD137 Fv; Flexible linker is (G4S)3
B3: Ly2366 (other)
chain 1: QVQLVQSGAEVKKPGASVKVSCKASGYTFTSYVMHWVRQKPGQGLEWIGYINPYNEGTESTDKFKGRATMTSDKSTSTVYMELSSLRSEDTAVYYCASIYYGYEGTYFGVWGQGTLVTVSSASTKGPSVFPLAPSSKSTSGGTAALGCLVKDYFPEPVTVSWNSGALTSGVHTFPAVLQSSGLYSLSSVVTVPSSSLGTQTYICNVNHKPSNTKVDKKVEPKSCGGGGSGGGGSEVQLVESGGGLVQPGGSLRLSCAASGFTFSTYAMNWVRQAPGKGLEWVGRIRSKYNNYATYYADSVKGRFTISRDDSKNSLYLQMNSLKTEDTAVYYCVRHGNFGNSYVSWFAYWGQGTLVTVSSGGGGSDKTHTCPPCPAPEAAGPSVFLFPPKPKDTLMISRTPEVTCVVVDVSHEDPEVKFNWYVDGVEVHNAKTKPREEQYNSTYRVVSVLTVLHQDWLNGKEYKCKVSNKALPAPIEKTISKAKGQPREPQVYTLPPSREEMTKNQVSLWCLVKGFYPSDIAVEWESNGQPENNYKTTPPVLDSDGSFFLYSKLTVDKSRWQQGNVFSCSVMHEALHNHYTQKSLSLSPGGGGGSGGGGSGGGGSGGGGSQVQLVQSGAEVKKPGASVKVSCKASGYTFAGFEMHWVRQAPGQGLEWMGAIDPKTGGTDYNQKFKDRVTMTRDTSISTAYMELSRLRSDDTAVYYCARDLGYFDVWGQGTLVTVSS
chain 2: QVQLVQSGAEVKKPGASVKVSCKASGYTFTSYVMHWVRQKPGQGLEWIGYINPYNEGTESTDKFKGRATMTSDKSTSTVYMELSSLRSEDTAVYYCASIYYGYEGTYFGVWGQGTLVTVSSASTKGPSVFPLAPSSKSTSGGTAALGCLVKDYFPEPVTVSWNSGALTSGVHTFPAVLQSSGLYSLSSVVTVPSSSLGTQTYICNVNHKPSNTKVDKKVEPKSCGGGGSGGGGSQAVVTQEPSLTVSPGGTVTLTCRSSTGAVTTSNYANWVQQKPGQAPRGLIGGTNKRAPWTPARFSGSLLGGKAALTITGAQAEDEADYYCALWYSNLWVFGGGTKLTVLGGGGSDKTHTCPPCPAPEAAGPSVFLFPPKPKDTLMISRTPEVTCVVVDVSHEDPEVKFNWYVDGVEVHNAKTKPREEQYNSTYRVVSVLTVLHQDWLNGKEYKCKVSNKALPAPIEKTISKAKGQPREPQVYTLPPSREEMTKNQVSLSCAVKGFYPSDIAVEWESNGQPENNYKTTPPVLDSDGSFFLVSKLTVDKSRWQQGNVFSCSVMHEALHNRFTQKSLSLSPGGGGGSGGGGSGGGGSGGGGSDIQMTQSPSSLSASVGDRVTITCRASQDIRSNLNWYQQKPGGAVKLLIYYTSRLHSGVPSRFSGSGSGTDYTLTISSLQPEDFATYFCQQSEKLPRTFGGGTKVEIR
light: EIVLTQSPATLSLSPGERATLSCRASSSVSYMHWYQQKPGQAPRPWIYATSNLASGIPARFSGSRSGTDYTLTISSLEPEDFAVYYCQQWSSNTLTFGGGTKVEIKRTVAAPSVFIFPPSDEQLKSGTASVVCLLNNFYPREAKVQWKVDNALQSGNSQESVTEQDSKDSTYSLSSTLTLSKADYEKHKVYACEVTHQGLSSPVTKSFNRGEC
notes: Tri-specific antibody: B7H3 Fabs, central CD3 Fv, terminal CD137 Fv; Flexible linker is (G4S)2
B4: Ly1612 (antibody, V domains shown)
VH: QVQLVQSGAEVKKPGASVKVSCKASGYTFTSYVMHWVRQKPGQGLEWIGYINPYNEGTESTDKFKGRATMTSDKSTSTVYMELSSLRSEDTAVYYCASIYYGYEGTYFGVWGQGTLVTVSS
VL: EIVLTQSPATLSLSPGERATLSCRASSSVSYMHWYQQKPGQAPRPWIYATSNLASGIPARFSGSRSGTDYTLTISSLEPEDFAVYYCQQWSSNTLTFGGGTKVEIK
notes: Parent mAb; also called Anti-B7H3 Ly1612; B7H3 mAb

This experiment deals with T1, B7H3. Kind of experiment: ELISA or FCM (Example 2).
As for B1, the binding result was “binds”. On to B2, for which the binding result is listed as “binds”. As to B3, the binding result was “binds”. B4: the binding result was “binds”.
